Measurements: PMC2430334

Target: T1, rOxyR (Porphyromonas gingivalis 33277?) (UniProt B2RHP2)
T1 sequence: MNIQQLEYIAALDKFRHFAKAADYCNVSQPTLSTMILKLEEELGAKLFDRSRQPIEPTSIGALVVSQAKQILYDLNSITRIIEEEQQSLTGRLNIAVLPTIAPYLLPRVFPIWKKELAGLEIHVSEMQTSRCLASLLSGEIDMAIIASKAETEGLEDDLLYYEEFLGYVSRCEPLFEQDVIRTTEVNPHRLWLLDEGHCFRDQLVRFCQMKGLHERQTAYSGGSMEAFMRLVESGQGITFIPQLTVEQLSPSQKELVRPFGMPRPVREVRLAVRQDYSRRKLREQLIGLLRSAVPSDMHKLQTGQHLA
Test: EMSA

CGTCTTACCGGCTTCCCTATAGCAAAGGAAAGCATTTTTTTCTACTAAAAATTAATTCTAACAATATTCTGCTGTCTTCTACGTGTTTATACGCAGAAAAACGAAAAAAAACCGCACTACTCAATAAAAAAAACGCGATATTGACCCTCGCGAGAG (double strand) [mfa1 promoter region]
binding: no binding

CTTTTCGCCCGAAGGTTTTATCTTCCGGCCGGAGCTTTCGGATGAGATCAACTACCTTTTCGTCATGGAATGAATCGGTTTTTACGACCAAGATTCGAACCTTTTTCCGTTCATCATGTTCTTATAATGATTAAAAAGTTGTCGGTGTCGGTTTTACACTGCTCCGATACAAATTATTAAAAGACTTAATTACAATAAAAATCAGACGTT (double strand) [sod promoter region]
binding: binds
